Reference: article PMC4155688, “Mapping the Putative G Protein-coupled Receptor (GPCR) Docking Site on GPCR Kinase 2” (The Journal of Biological Chemistry, 2014)
Changes are numbered by the printed parent chain. Names may count otherwise. Values belong to the binder of their own block, whether it stands above or below them.

Columns and labels:
α2AAR-GFP^2 [1] = molecular target: T1, α2AAR-GFP^2 (UniProt P08913 1-465); assay: FRET or BRET; living HEK293T cells co-transfected with α2AAR-GFP^2 and RlucII-GRK2; dose-response to norepinephrine read 6 min after addition; NOR-promoted BRET fitted to biphasic (two-site) curves with a high-affinity and a low-affinity component; details: partners not purified
T1 construct: α2A-adrenergic receptor; also called α2A-adrenergic receptor; source: HEK293T, transfected, in living cells; not shown: GFP^2, C-terminal (from the name α2AAR-GFP^2), kept
T1 sequence (looked up): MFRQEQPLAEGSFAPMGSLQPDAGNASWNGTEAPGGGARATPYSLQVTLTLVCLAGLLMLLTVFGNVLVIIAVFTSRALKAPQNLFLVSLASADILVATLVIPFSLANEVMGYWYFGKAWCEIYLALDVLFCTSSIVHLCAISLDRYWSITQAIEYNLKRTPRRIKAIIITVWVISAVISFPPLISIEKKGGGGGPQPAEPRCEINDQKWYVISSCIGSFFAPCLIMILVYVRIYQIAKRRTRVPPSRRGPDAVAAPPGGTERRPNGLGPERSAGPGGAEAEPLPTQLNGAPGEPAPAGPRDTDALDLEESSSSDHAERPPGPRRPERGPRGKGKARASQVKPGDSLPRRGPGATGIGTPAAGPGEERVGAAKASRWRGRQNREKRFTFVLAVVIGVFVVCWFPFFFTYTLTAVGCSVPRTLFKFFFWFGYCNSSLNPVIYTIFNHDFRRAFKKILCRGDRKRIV

α2AAR-GFP^2 [2] = molecular target: T1, α2AAR-GFP^2; assay: FRET or BRET; living HEK293T cells co-transfected with α2AAR-GFP^2 (acceptor) and RlucII-GRK2 (donor); in PBS at room temperature, with or without 100 μM norepinephrine (one-point and titration: 6 min; time course); coelenterazine 400A 5 μM; net or agonist-promoted BRET; details: partners not purified

B1: RlucII-GRK2 (wild type) (enzyme, human, UniProt P25098 1-689, looked up)
chain: MADLEAVLADVSYLMAMEKSKATPAARASKKILLPEPSIRSVMQKYLEDRGEVTFEKIFSQKLGYLLFRDFCLNHLEEARPLVEFYEEIKKYEKLETEEERVARSREIFDSYIMKELLACSHPFSKSATEHVQGHLGKKQVPPDLFQPYIEEICQNLRGDVFQKFIESDKFTRFCQWKNVELNIHLTMNDFSVHRIIGRGGFGEVYGCRKADTGKMYAMKCLDKKRIKMKQGETLALNERIMLSLVSTGDCPFIVCMSYAFHTPDKLSFILDLMNGGDLHYHLSQHGVFSEADMRFYAAEIILGLEHMHNRFVVYRDLKPANILLDEHGHVRISDLGLACDFSKKKPHASVGTHGYMAPEVLQKGVAYDSSADWFSLGCMLFKLLRGHSPFRQHKTKDKHEIDRMTLTMAVELPDSFSPELRSLLEGLLQRDVNRRLGCLGRGAQEVKESPFFRSLDWQMVFLQKYPPPLIPPRGEVNAADAFDIGSFDEEDTKGIKLLDSDQELYRNFPLTISERWQQEVAETVFDTINAETDRLEARKKAKNKQLGHEEDYALGKDCIMHGYMSKMGNPFLTQWQRRYFYLFPNRLEWRGEGEAPQSLLTMEEIQSVEETQIKERKCLLLKIRGGKQFILQCDSDPELVQWKKELRDAYREAQQLVQRVPKMKNKPRSPVVELSKVPLVQRGSANGL
notes: G protein-coupled receptor kinase 2 (GRK2), human; also called luciferase-GRK2; WT RlucII-GRK2; source: HEK293T, transfected, in living cells
EC50,L of norepinephrine (low-affinity component of the biphasic BRET curve) (α2AAR-GFP^2 [1]): 7.9 µM

B2: RlucII-GRK2 D317A (enzyme, human, UniProt P25098 1-689, looked up)
chain: B1 chain with D317A
notes: GRK2, human; catalytically inert mutant; source: HEK293T, transfected, in living cells
fold recruitment (agonist-promoted BRET) relative to WT (α2AAR-GFP^2 [2]): 2 fold

B3: RlucII-GRK2 S12A (enzyme, human, UniProt P25098 1-689, looked up)
chain: B1 chain with S12A
notes: GRK2, human; source: HEK293T, transfected, in living cells
fold stimulation of the low-affinity BRET component relative to WT (α2AAR-GFP^2 [1]): 2.6 fold
fold potentiation of the total agonist-induced BRET relative to WT (α2AAR-GFP^2 [2]): 2 fold

B4: RlucII-GRK2 L8E (enzyme, human, UniProt P25098 1-689, looked up)
chain: B1 chain with L8E
notes: as for B3
percent reduction of the agonist-promoted BRET relative to WT (α2AAR-GFP^2 [2]): ~55%

B6: RlucII-GRK2 A16V (enzyme, human, UniProt P25098 1-689, looked up)
chain: B1 chain with A16V
notes: as for B3
percent reduction of the agonist-promoted BRET relative to WT (α2AAR-GFP^2 [2]): ~55%

B7: RlucII-GRK2 L4A (enzyme, human, UniProt P25098 1-689, looked up)
chain: B1 chain with L4A
notes: as for B3
percent reduction of the low-affinity BRET component relative to WT (α2AAR-GFP^2 [1]): ~70%
percent reduction of the agonist-promoted BRET relative to WT (α2AAR-GFP^2 [2]): ~55%

B9: RlucII-GRK2 V7A (enzyme, human, UniProt P25098 1-689, looked up)
chain: B1 chain with V7A
notes: as for B3
percent reduction of the agonist-promoted BRET relative to WT (α2AAR-GFP^2 [2]): ~55%

B10: RlucII-GRK2 R587Q (enzyme, human, UniProt P25098 1-689, looked up)
chain: B1 chain with R587Q
notes: as for B3
percent reduction of the NOR-promoted BRET signal relative to WT (α2AAR-GFP^2 [2]): 90%

B12: RlucII-GRK2 M17A (enzyme, human, UniProt P25098 1-689, looked up)
chain: B1 chain with M17A
notes: as for B3
percent reduction of the agonist-promoted BRET relative to WT (α2AAR-GFP^2 [2]): ~55%

B14: RlucII-GRK2 R195A (enzyme, human, UniProt P25098 1-689, looked up)
chain: B1 chain with R195A
notes: as for B3
percent reduction of the low-affinity BRET component relative to WT (α2AAR-GFP^2 [1]): ~60%
percent reduction of the agonist-promoted BRET signal relative to WT (α2AAR-GFP^2 [2]): 60%

B15: RlucII-GRK2 V7E (enzyme, human, UniProt P25098 1-689, looked up)
chain: B1 chain with V7E
notes: as for B3
percent reduction of the agonist-promoted BRET relative to WT (α2AAR-GFP^2 [2]): ~55%

Further lines, results first:

percent reduction of the low-affinity BRET component relative to WT (α2AAR-GFP^2 [1]): ~70%
percent reduction of the agonist-promoted BRET relative to WT (α2AAR-GFP^2 [2]): ~55%
B5: RlucII-GRK2 Y13A (enzyme, human, UniProt P25098 1-689, looked up)
chain: B1 chain with Y13A
notes: as for B3

percent reduction of the agonist-promoted BRET relative to WT (α2AAR-GFP^2 [2]): ~55%
B8: RlucII-GRK2 V11A (enzyme, human, UniProt P25098 1-689, looked up)
chain: B1 chain with V11A
notes: as for B3

percent reduction of receptor recruitment (agonist-promoted BRET) relative to WT (α2AAR-GFP^2 [2]): 60%
B11: RlucII-GRK2 V7P (enzyme, human, UniProt P25098 1-689, looked up)
chain: B1 chain with V7P
notes: as for B3

percent reduction of receptor recruitment (agonist-promoted BRET) relative to WT (α2AAR-GFP^2 [2]): 69%
B13: RlucII-GRK2 V7E/L8E (enzyme, human, UniProt P25098 1-689, looked up)
chain: B1 chain with V7E, L8E
notes: as for B3

percent inhibition of the high-agonist concentration BRET signal relative to WT (α2AAR-GFP^2 [1]): 74%
B16: RlucII-GRK2 V477D (enzyme, human, UniProt P25098 1-689, looked up)
chain: B1 chain with V477D
notes: as for B3
